Experimental data as given in the supplement of paper PMC9112550, “Optimization of the antimicrobial peptide Bac7 by deep mutational scanning” (BMC Biology, 2022).

Tested on: Escherichia coli TOP10
Test: shrunken log2 fold change of peptide-encoding DNA abundance (4.5 h post-induction vs induction); higher = less antimicrobial activity (less host growth inhibition)
Conditions: time post-induction: 4.5 h; library: site-saturation at positions 5, 18, 19, 20
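Also: peptides expressed intracellularly from a pBAD plasmid library in pooled LB shake-flask culture, induced with 0.3% L-arabinose, DNA abundance read by NGS, three biological replicates, DESeq2 with apeglm shrinkage.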

Sequence	shrunken log2 fold change
RRIRARPPRLPRPRPRPLAEPRP	0.976
RRIRVRPPRLPRPRPRPQNCPRP	-0.205
RRIRRRPPRLPRPRPRPQTFPRP	0.264
RRIRTRPPRLPRPRPRPQFEPRP	0.0219
RRIRERPPRLPRPRPRPNTMPRP	-0.122
RRIRDRPPRLPRPRPRPQSHPRP	0.236
RRIRSRPPRLPRPRPRPQKHPRP	-0.106
RRIRQRPPRLPRPRPRPHDDPRP	0.043
RRIRWRPPRLPRPRPRPCGWPRP	0.314
RRIRPRPPRLPRPRPRPWSMPRP	-0.155
RRIRKRPPRLPRPRPRPYLHPRP	-0.31
RRIRKRPPRLPRPRPRPDRMPRP	1.19
RRIRLRPPRLPRPRPRPRIHPRP	-0.081
RRIRVRPPRLPRPRPRPMHHPRP	-0.257
RRIRIRPPRLPRPRPRPLLHPRP	-0.221
RRIRMRPPRLPRPRPRPNKKPRP	-0.0238
RRIRYRPPRLPRPRPRPARSPRP	0.134
RRIRPRPPRLPRPRPRPHEKPRP	-0.0384
RRIRQRPPRLPRPRPRPHLIPRP	-0.0982
RRIRNRPPRLPRPRPRPYVPPRP	-0.0142
RRIRERPPRLPRPRPRPPDTPRP	-0.426
RRIRERPPRLPRPRPRPDPAPRP	2.64
RRIRIRPPRLPRPRPRPWDIPRP	-0.00968
RRIRQRPPRLPRPRPRPRNGPRP	-0.0342
RRIRLRPPRLPRPRPRPTICPRP	-0.176

Sequence	shrunken log2 fold change
RRIRRRPPRLPRPRPRPHRTPRP	0.102
RRIRNRPPRLPRPRPRPEFMPRP	0.0662
RRIRTRPPRLPRPRPRPHGRPRP	0.0169
RRIRNRPPRLPRPRPRPANQPRP	0.271
RRIRFRPPRLPRPRPRPRKMPRP	0.0208
RRIRKRPPRLPRPRPRPEVNPRP	3.37
RRIRCRPPRLPRPRPRPHWWPRP	0.0398
RRIRDRPPRLPRPRPRPCLWPRP	0.218
RRIRSRPPRLPRPRPRPPPPPRP	1.03
RRIRPRPPRLPRPRPRPIFMPRP	-0.0036
RRIRPRPPRLPRPRPRPDSSPRP	-0.000765
RRIRARPPRLPRPRPRPYIFPRP	-0.277
RRIRVRPPRLPRPRPRPQDFPRP	0.00129
RRIRCRPPRLPRPRPRPDAHPRP	-0.0835
RRIRRRPPRLPRPRPRPTGWPRP	0.766
RRIRCRPPRLPRPRPRPVVRPRP	-0.356
RRIRDRPPRLPRPRPRPEEWPRP	0.0446
RRIRVRPPRLPRPRPRPKRRPRP	-0.0117
RRIRMRPPRLPRPRPRPIWHPRP	-0.0798
RRIRTRPPRLPRPRPRPFCEPRP	-0.0463
RRIRCRPPRLPRPRPRPNPYPRP	-0.44
RRIRIRPPRLPRPRPRPAVYPRP	-0.825
RRIRARPPRLPRPRPRPATNPRP	0.317
RRIRERPPRLPRPRPRPAWLPRP	0.471
RRIRRRPPRLPRPRPRPHCIPRP	0.0457

Sequence	shrunken log2 fold change
RRIRMRPPRLPRPRPRPDMAPRP	1.86
RRIRHRPPRLPRPRPRPAFIPRP	-0.037
RRIRFRPPRLPRPRPRPYHDPRP	-0.722
RRIRSRPPRLPRPRPRPAWFPRP	0.171
RRIRLRPPRLPRPRPRPCCSPRP	-0.144
RRIRLRPPRLPRPRPRPPTMPRP	0.266
RRIRVRPPRLPRPRPRPNEFPRP	-0.00739
RRIRPRPPRLPRPRPRPLICPRP	-0.164
RRIRCRPPRLPRPRPRPMPEPRP	0.122
RRIRQRPPRLPRPRPRPENKPRP	-0.578
RRIRIRPPRLPRPRPRPGPFPRP	-0.239
RRIRDRPPRLPRPRPRPTWSPRP	0.235
RRIRARPPRLPRPRPRPVSHPRP	0.101
RRIRVRPPRLPRPRPRPGHCPRP	0.258
RRIRPRPPRLPRPRPRPLWAPRP	0.343
RRIRSRPPRLPRPRPRPVHWPRP	0.138
RRIRARPPRLPRPRPRPDESPRP	0.0602
RRIRKRPPRLPRPRPRPEKVPRP	0.112
RRIRARPPRLPRPRPRPCGAPRP	0.737
RRIRRRPPRLPRPRPRPCINPRP	2.42
RRIRARPPRLPRPRPRPHWIPRP	-0.277
RRIRARPPRLPRPRPRPQKHPRP	0.0336
RRIRSRPPRLPRPRPRPDGFPRP	-0.0636
RRIRFRPPRLPRPRPRPWVTPRP	-0.0635
RRIRIRPPRLPRPRPRPFIPPRP	-0.697

Sequence	shrunken log2 fold change
RRIRCRPPRLPRPRPRPMERPRP	-0.00088
RRIRNRPPRLPRPRPRPGDNPRP	0.0229
RRIRTRPPRLPRPRPRPQIGPRP	-0.0138
RRIRPRPPRLPRPRPRPWHQPRP	0.0649
RRIRLRPPRLPRPRPRPLYPPRP	-0.12
RRIRQRPPRLPRPRPRPRPQPRP	0.262
RRIRWRPPRLPRPRPRPVDQPRP	0.168
RRIRRRPPRLPRPRPRPIVTPRP	0.0446
RRIRSRPPRLPRPRPRPHNVPRP	-0.436
RRIRMRPPRLPRPRPRPTGQPRP	0.636
RRIRRRPPRLPRPRPRPLGMPRP	0.471
RRIRPRPPRLPRPRPRPHFQPRP	0.0551
RRIRVRPPRLPRPRPRPMDGPRP	0.145
RRIRIRPPRLPRPRPRPSDGPRP	-0.0648
RRIRQRPPRLPRPRPRPCLQPRP	-0.112
RRIRNRPPRLPRPRPRPYLRPRP	-0.0191
RRIRARPPRLPRPRPRPRSAPRP	0.681
RRIRLRPPRLPRPRPRPYVAPRP	-0.602
RRIRDRPPRLPRPRPRPSMGPRP	-0.11
RRIRERPPRLPRPRPRPVITPRP	-0.145
RRIRNRPPRLPRPRPRPKLTPRP	2
RRIRERPPRLPRPRPRPRCHPRP	-0.464
RRIRERPPRLPRPRPRPVIWPRP	0.254
RRIRPRPPRLPRPRPRPYVIPRP	-0.401
RRIRCRPPRLPRPRPRPICCPRP	-0.166

Sequence	shrunken log2 fold change
RRIRARPPRLPRPRPRPQGHPRP	0.273
RRIRARPPRLPRPRPRPNGFPRP	0.113
RRIRRRPPRLPRPRPRPCLRPRP	-0.0202
RRIRNRPPRLPRPRPRPCMMPRP	-0.325
RRIRTRPPRLPRPRPRPNPCPRP	0.0479
RRIRYRPPRLPRPRPRPSKFPRP	-0.299
RRIRWRPPRLPRPRPRPQCVPRP	-0.0311
RRIRRRPPRLPRPRPRPTSRPRP	0.312
RRIRARPPRLPRPRPRPQYEPRP	0.181
RRIRFRPPRLPRPRPRPRVSPRP	-0.102
RRIRHRPPRLPRPRPRPIPEPRP	-0.16
RRIRIRPPRLPRPRPRPHEMPRP	-0.143
RRIRVRPPRLPRPRPRPHVDPRP	0.0108
RRIRTRPPRLPRPRPRPDVDPRP	-0.0342
RRIRSRPPRLPRPRPRPKPQPRP	0.524
RRIRGRPPRLPRPRPRPRDAPRP	1.21
RRIRRRPPRLPRPRPRPRCCPRP	0.43
RRIRRRPPRLPRPRPRPRWYPRP	0.092
RRIRKRPPRLPRPRPRPKQIPRP	0.0984
RRIRPRPPRLPRPRPRPWVEPRP	0.17
RRIRIRPPRLPRPRPRPAFAPRP	0.207
RRIRPRPPRLPRPRPRPILQPRP	-0.224
RRIRDRPPRLPRPRPRPQWPPRP	-0.0971
RRIRGRPPRLPRPRPRPQVFPRP	0.0336
RRIRPRPPRLPRPRPRPSRTPRP	0.198
